{
  "source": "the RNAGym collection of RNA variant scans (doi:10.7554/elife.80360)",
  "parents": {"B1": {"name": "Hairpin Ribozyme (parent)", "chain": "GUCCUCUUUCACGUGCGCGUGAAAGAGAGAAGUGAACCAGAGAAACACACGUUGUGGUAUAUUACCUGGUA"}},
  "data": [
    {"variants_of": "B1", "assay": "self-cleavage, relative activity (ratio to wild type); higher = more cleavage; co-transcriptional", "values": [
      {"variant": "A11G G19U", "self-cleavage": 0.979},
      {"variant": "A11C G29A", "self-cleavage": 0.128},
      {"variant": "A11U G42U", "self-cleavage": 0.171},
      {"variant": "A11U G42C", "self-cleavage": 0.271},
      {"variant": "A11U U20A", "self-cleavage": 0.874},
      {"variant": "A11U U20C", "self-cleavage": 1.11},
      {"variant": "A11U U20G", "self-cleavage": 0.907},
      {"variant": "C10G G42A", "self-cleavage": 0.185},
      {"variant": "A11G U52C", "self-cleavage": 0.944},
      {"variant": "C10G U33A", "self-cleavage": 0.138},
      {"variant": "A11C G19C", "self-cleavage": 0.589},
      {"variant": "A11G G56U", "self-cleavage": 0.105},
      {"variant": "C10U G34U", "self-cleavage": 1.09},
      {"variant": "A11G U58C", "self-cleavage": 0.81},
      {"variant": "A11G U58A", "self-cleavage": 0.557},
      {"variant": "C10G A31U", "self-cleavage": 0.084},
      {"variant": "C10U A64U", "self-cleavage": 0.134},
      {"variant": "C10U A64G", "self-cleavage": 0.606},
      {"variant": "A11G A49G", "self-cleavage": 0.577},
      {"variant": "A11G A49U", "self-cleavage": 0.208},
      {"variant": "C10U A45U", "self-cleavage": 0.111},
      {"variant": "C10U A45G", "self-cleavage": 0.0999},
      {"variant": "C10U A45C", "self-cleavage": 0.159},
      {"variant": "A11G G34C", "self-cleavage": 1.3},
      {"variant": "C10U C46A", "self-cleavage": 0.15},
      {"variant": "C10U C46G", "self-cleavage": 0.0871},
      {"variant": "A11U A28G", "self-cleavage": 0.929},
      {"variant": "A11G G32C", "self-cleavage": 0.0578},
      {"variant": "C12A A31U", "self-cleavage": 0.104},
      {"variant": "C10U U53C", "self-cleavage": 0.708},
      {"variant": "C10G C12G", "self-cleavage": 0.477},
      {"variant": "C10G C12U", "self-cleavage": 0.503},
      {"variant": "A11U G32C", "self-cleavage": 0.144},
      {"variant": "C10G A49C", "self-cleavage": 0.198},
      {"variant": "C10G A49U", "self-cleavage": 0.21},
      {"variant": "C10A U70A", "self-cleavage": 0.498},
      {"variant": "A11C A44U", "self-cleavage": 0.155},
      {"variant": "A11C A49C", "self-cleavage": 0.192},
      {"variant": "C10U G40C", "self-cleavage": 0.138},
      {"variant": "C10U G40U", "self-cleavage": 0.203},
      {"variant": "C10G G19U", "self-cleavage": 0.507},
      {"variant": "C10G G19A", "self-cleavage": 0.64},
      {"variant": "C10G A24G", "self-cleavage": 0.63},
      {"variant": "C10G A24U", "self-cleavage": 0.468},
      {"variant": "A11G A39G", "self-cleavage": 0.323},
      {"variant": "A11C A47G", "self-cleavage": 0.0993},
      {"variant": "A11C A47C", "self-cleavage": 0.267},
      {"variant": "A11C G54C", "self-cleavage": 0.378},
      {"variant": "A11C G54U", "self-cleavage": 0.583},
      {"variant": "A11C C38A", "self-cleavage": 0.171},
      {"variant": "A11G G68A", "self-cleavage": 0.277},
      {"variant": "A11U U33G", "self-cleavage": 0.151},
      {"variant": "A11U U33C", "self-cleavage": 0.152},
      {"variant": "C10G G27U", "self-cleavage": 0.195},
      {"variant": "A11G G69C", "self-cleavage": 0.267},
      {"variant": "C10U G57A", "self-cleavage": 0.249},
      {"variant": "C10U G57U", "self-cleavage": 0.239},
      {"variant": "A11U C65A", "self-cleavage": 0.719},
      {"variant": "C10G G25C", "self-cleavage": 0.358},
      {"variant": "C10U G25U", "self-cleavage": 0.509},
      {"variant": "C10U U14A", "self-cleavage": 0.811},
      {"variant": "A11U G56U", "self-cleavage": 0.131},
      {"variant": "A11U G56A", "self-cleavage": 0.176},
      {"variant": "C10U A35U", "self-cleavage": 0.568},
      {"variant": "C10U A35G", "self-cleavage": 0.689},
      {"variant": "A11U A71U", "self-cleavage": 0.701},
      {"variant": "A11U G34C", "self-cleavage": 1.43},
      {"variant": "A11U G34A", "self-cleavage": 1.13},
      {"variant": "A11G A41U", "self-cleavage": 1.14},
      {"variant": "C10U G56A", "self-cleavage": 0.181},
      {"variant": "C10U G56C", "self-cleavage": 0.25},
      {"variant": "C10U G56U", "self-cleavage": 0.162},
      {"variant": "A11C U53G", "self-cleavage": 0.863},
      {"variant": "A11C A64U", "self-cleavage": 0.237},
      {"variant": "C10U A28C", "self-cleavage": 0.305},
      {"variant": "A11C U62C", "self-cleavage": 0.278},
      {"variant": "A11C U62A", "self-cleavage": 0.208},
      {"variant": "C10U A30G", "self-cleavage": 0.135},
      {"variant": "A11U G13A", "self-cleavage": 0.672},
      {"variant": "C10G G13U", "self-cleavage": 0.528},
      {"variant": "C10A U62A", "self-cleavage": 0.238},
      {"variant": "C10G C38A", "self-cleavage": 0.168},
      {"variant": "A11G U55G", "self-cleavage": 0.223},
      {"variant": "A11G A31G", "self-cleavage": 0.728},
      {"variant": "A11G A31C", "self-cleavage": 0.0862},
      {"variant": "A11G A31U", "self-cleavage": 0.0838},
      {"variant": "A11G U33G", "self-cleavage": 0.131},
      {"variant": "A11U U63C", "self-cleavage": 0.122},
      {"variant": "C12A A24C", "self-cleavage": 0.914},
      {"variant": "C12A A24G", "self-cleavage": 0.676},
      {"variant": "A11G G42C", "self-cleavage": 0.322},
      {"variant": "A11G G42U", "self-cleavage": 0.314},
      {"variant": "A11G G42A", "self-cleavage": 0.201},
      {"variant": "C12A A22C", "self-cleavage": 0.575},
      {"variant": "C12A A44U", "self-cleavage": 0.186},
      {"variant": "C10U C50G", "self-cleavage": 0.195},
      {"variant": "C10G A23G", "self-cleavage": 0.419},
      {"variant": "A11U C38G", "self-cleavage": 0.128},
      {"variant": "A11G G29A", "self-cleavage": 0.101},
      {"variant": "A11C U70A", "self-cleavage": 0.877},
      {"variant": "A11C U70G", "self-cleavage": 0.608},
      {"variant": "C10U U60A", "self-cleavage": 0.67},
      {"variant": "A11G U70A", "self-cleavage": 0.627},
      {"variant": "A11G U70C", "self-cleavage": 0.952},
      {"variant": "A11U U62C", "self-cleavage": 0.187},
      {"variant": "C10G U20A", "self-cleavage": 0.484},
      {"variant": "C12A A28G", "self-cleavage": 0.836},
      {"variant": "C12A A28C", "self-cleavage": 0.531},
      {"variant": "C10G A11G", "self-cleavage": 0.655},
      {"variant": "C10U G42A", "self-cleavage": 0.195},
      {"variant": "A11C C65U", "self-cleavage": 0.431},
      {"variant": "A11C C65A", "self-cleavage": 0.896},
      {"variant": "A11G A22U", "self-cleavage": 1.01},
      {"variant": "A11G A22G", "self-cleavage": 0.774},
      {"variant": "A11G A22C", "self-cleavage": 0.779},
      {"variant": "C12A A49U", "self-cleavage": 0.256},
      {"variant": "C12A A49G", "self-cleavage": 0.474},
      {"variant": "C12A A59C", "self-cleavage": 0.149},
      {"variant": "C12A A59U", "self-cleavage": 0.176},
      {"variant": "C10G A43C", "self-cleavage": 0.128},
      {"variant": "C10G A43U", "self-cleavage": 0.157},
      {"variant": "C12A A64C", "self-cleavage": 0.101},
      {"variant": "C10G G68C", "self-cleavage": 0.199},
      {"variant": "C10U C16U", "self-cleavage": 0.871},
      {"variant": "A11G G27C", "self-cleavage": 0.198},
      {"variant": "C10U A11U", "self-cleavage": 0.577},
      {"variant": "A11G A26U", "self-cleavage": 0.645},
      {"variant": "A11G A26G", "self-cleavage": 0.751},
      {"variant": "A11U C66A", "self-cleavage": 0.139},
      {"variant": "A11U G27C", "self-cleavage": 0.184},
      {"variant": "A11U G19C", "self-cleavage": 0.687},
      {"variant": "A11U G19A", "self-cleavage": 0.79},
      {"variant": "A11G C12G", "self-cleavage": 0.788},
      {"variant": "C10G G29U", "self-cleavage": 0.136},
      {"variant": "A11C A45G", "self-cleavage": 0.162},
      {"variant": "A11C G69C", "self-cleavage": 0.182},
      {"variant": "A11C C46A", "self-cleavage": 0.142},
      {"variant": "C10A U63C", "self-cleavage": 0.207},
      {"variant": "C10A U63G", "self-cleavage": 0.152},
      {"variant": "A11C U58C", "self-cleavage": 1.16},
      {"variant": "A11C U58A", "self-cleavage": 0.635},
      {"variant": "C10G C48U", "self-cleavage": 0.168},
      {"variant": "A11C A30G", "self-cleavage": 0.0919},
      {"variant": "A11U C37A", "self-cleavage": 0.228},
      {"variant": "A11U C16A", "self-cleavage": 0.696},
      {"variant": "A11U C16G", "self-cleavage": 0.653},
      {"variant": "C12A A36G", "self-cleavage": 0.956},
      {"variant": "C10G G34A", "self-cleavage": 0.978},
      {"variant": "C12A A61G", "self-cleavage": 0.174},
      {"variant": "A11U U67G", "self-cleavage": 0.287},
      {"variant": "C10G G57U", "self-cleavage": 0.243},
      {"variant": "A11U G57C", "self-cleavage": 0.182},
      {"variant": "A11U G54U", "self-cleavage": 0.565},
      {"variant": "A11U G21U", "self-cleavage": 0.915},
      {"variant": "A11U G21A", "self-cleavage": 0.586},
      {"variant": "A11C A31C", "self-cleavage": 0.116},
      {"variant": "C10G G54U", "self-cleavage": 0.471},
      {"variant": "C10U C66A", "self-cleavage": 0.183},
      {"variant": "A11U A26G", "self-cleavage": 0.751},
      {"variant": "A11U A26U", "self-cleavage": 0.775},
      {"variant": "C10G G15C", "self-cleavage": 0.962},
      {"variant": "A11G U63A", "self-cleavage": 0.116},
      {"variant": "C12A A26C", "self-cleavage": 0.393},
      {"variant": "A11C U63C", "self-cleavage": 0.141},
      {"variant": "A11C U63G", "self-cleavage": 0.134},
      {"variant": "C10U A39G", "self-cleavage": 0.242},
      {"variant": "A11U A24C", "self-cleavage": 0.211}
    ]}
  ]
}
